In patent US20230189818A1, “RNA-BASED CONTROL OF BOTRYTIS” (priority 2021, published 2023):

Columns and labels:
[1] = test system: Botrytis cinerea conidia; test: In vitro liquid-based assay (fungal biomass, 96-well plates, Cytation 5); type: cell-based; details: co-incubated with conidia for three days, vs untreated control
Procedure: Fungal culture. The Botrytis cinerea was plated each week the culture onto Malt Extract Agar (MEA) from long-term storage on silica stored at 4° C. Three pellets of silica were added to the center of a MEA agar plate and grown at room temperature without parafilm/tape seal for 10-14 days before use; a culture 12 days old was typically used.
Spore and media preparation. A pure culture of B. cinerea was flooded with a 0.01% Triton x-100 solution and conidia scraped free with a sterile hockey stick. The suspension was transferred to two, 1.5 mL centrifuge tubes and centrifuged at 8000 rpm for two minutes. The supernatant was discarded, pelleted spores washed twice with sterile water, then resuspended in sterile water. Conidia were quantified using a hemacytometer and diluted to a final concentration of 5000 conidia/mL stock. A stock solution of 1.25× minimal media was prepared for the assay setup using the components below. Once the stock solution was made, the pH was adjusted to 6.0 using NaOH or KOH, then filter sterilized through a 0.2 um filter tower and vacuum pump and stored at 4° C. The Kao & Michayluk Vitamins (100×) is a filter sterilized stock solution. The stock contains vitamins and amino acids as described by Kao & Michayluk. After filter sterilization, 20 mg of 4-Aminobenzoic acid in 100 ml of solution was added.
Experimental setup. Screening assays were setup in 96-well plates with conidia co-incubated with treatments (controls and dsRNAs) for three days before determining fungal biomass. Each treatment was replicated eight times within a single plate. In each well consisted of 12.5 μl of conidia suspension, 25 μl of the treatment, 12.5 μl of sterile deionized water, and 200 μl of minimal media. Each plate was covered with a breath right film and placed in the percival growth chamber at 23° C. on the shaking platform set to 120 RPM with 24-hour lighting. Plates were incubated for 72 hours before determining fungal growth.
Reading assay plate. Fungal biomass was determined by reading plates with the Cytation 5 machine. The program was set to compile 8 photo slices per well under brightfield microscopy with a 2.5× lens to measure biomass.
Data analysis. Analysis will automatically run on Cytation5 to determine final biomass.
Results are shown in Table 1B representing the average reduction in biomass vs. control for tested sequences across several runs described above.

[2] = test system: Botrytis cinerea isolate (B05.10); test: Detached leaf assay (tomato leaflets, lesion size); type: in vivo; details: five days post inoculation, vs untreated inoculated control
Procedure: Plant tissue. Tomato plants, variety Brandywine, were grown in the greenhouse for 3 weeks before harvesting the first true leaves for assays. Nodes 2-4 were prioritized for harvest and only lateral leaflets were used for assays. Leaflets of approximately the same size were used each week and were randomized among treatments. Detached leaflets were immediately brought into the lab for treatment and used within 4 hours of harvest. Detached leaflets were kept at 4° C. until they were treated and placed onto a 1% water agar medium for incubation.
Fungal culture. A Botrytis cinerea isolate (B05.10) was preserved on silica for long-term storage and pulled from these tubes stored at 4° C. for growth on a nutritive medium. Three pellets of silica were added to the center of a Malt Extract Agar (MEA) agar plate and grown at room temperature without parafilm/tape seal for ˜14 days, or until abundant conidia formation, before use.
Treatment of leaflets. Leaflets were treated 24 hours before inoculation and applied using an atomizer to get a fine mist of small droplets entirely covering the leaflet. Silwet L-77 was used as a spreader and added for a 0.03% final concentration (Silwet L-77 brand Phyto Technology Laboratories, S7777 Lot #14D7777001 F). The inoculated control was sprayed with the same volume of sterile DI water with Silwet L-77 in the absence of fungicide or experimental material. Leaflets were spray treated by laying them on a paper towel and holding the atomizer ˜6″ away from the leaflet for applications. Treated leaves were placed on a 1% water agar (10 g Bacto Agar, Difco, in 1 L deionized water, sterilized for 30 minutes at 121° C. and poured when reached a temp of 55° C. into 100×20 mm Petri dishes), with lids of the Petri dishes placed back on before putting Petri dishes under plastic bags to maintain humidity before inoculation the following day. Petri dishes of treated leaflets were left on the lab counter until the following day. Each treatment was replicated ten times with each replicate being a single treated leaflet with two inoculation sites, one on each side of the leaf midvein.
Inoculation. The conidial suspension was prepared by pouring a 7% white grape juice solution onto the culture plate, then scraping the plate with a sterile spatula to dislodge the spores and mycelia. The grape juice solution was prepared by mixing Welch's brand organic white grape juice into sterile deionized water. After dislodging the spores and mycelia of the culture, the suspension was poured through two layers of cheesecloth to remove fungal mycelia and catch the conidial suspension in a clean 50 mL conical tube. Approximately 3 uL of TWEEN 20 was added to conidial suspension to prevent sticking to conical tube. The spore concentration was determined using a Neubauer Improved hemocytometer and inoculum was diluted with more 7% grape juice until a spore concentration of 1×10^5 conidia/mL was reached. Inoculum was used to inoculate host tissue within 2 hours of preparation. Each tomato leaflet was inoculated twice, with inoculation sites placed one per side of the leaflet midvein. A 10 μL volume of spore suspension was placed at each inoculation site using a repeater pipette. Special care was taken not to touch the tip to leaflet surface to avoid contamination between treatments.
Incubation. Petri dishes were placed on lunch trays 6 plates high and moved to an incubator. The incubator was humidity controlled and holds at ˜75% relative humidity. The incubator was kept on 12/12 light/dark days and is set to a temperature of 23° C.
Rating. Measurements were taken at five days post inoculation (DPI). Each lesion that developed was measured using electronic calipers in 2 directions perpendicular to each other to help determine lesion diameter.
Data analysis. Data was analyzed using the SAS JMP statistical program (version 13.2.1) with comparisons made to the untreated, inoculated control. […]

B1: GS2589: dsRNA trigger targeting B. cinerea Bcsec15 (XM_024692064.1); trigger SEQ ID NO 49, RNA 53, reverse complement 57 (nucleic acid, listed as Botrytis cinerea)
sense: GGUAUGUUCCGGACAGACCGAAAGAAGAAUACACAUUCCCCGGUGUAUUACCAUUCUCCCAGAUGUACCCAAUGUGCUGUAUAGAUAUCAGAAAUUUCCUGAAUCGAUUCUACUUCAUAAUGGAUGAUCAUUUUCAACAGCCAAACAUUAUUGAUGAGACACUUAAGAAGUCGAUAGAUGAGCUUCUGUCUGAGGAUAUUU
antisense: AAAUAUCCUCAGACAGAAGCUCAUCUAUCGACUUCUUAAGUGUCUCAUCAAUAAUGUUUGGCUGUUGAAAAUGAUCAUCCAUUAUGAAGUAGAAUCGAUUCAGGAAAUUUCUGAUAUCUAUACAGCACAUUGGGUACAUCUGGGAGAAUGGUAAUACACCGGGGAAUGUGUAUUCUUCUUUCGGUCUGUCCGGAACAUACC
In the case of B1, the “Average % Reduction in Biomass” value ([1]; 25 ppm dsRNA) is reported as 20% and the “Average % Reduction in Biomass” value ([1]; 150 ppm dsRNA) is reported as 39%.

B2: GS2641: dsRNA trigger targeting B. cinerea Bcsec15 (XM_024692064.1); trigger SEQ ID NO 51, RNA 55, reverse complement 59 (nucleic acid, listed as Botrytis cinerea)
sense: CAAACAAUGGAGGGUUGGGGAUAUUCAGUUGCCAUAUUAGAUGCUUAUGUGCUUAAGCUUUUCUAUAGAUAUGCUGAUUUGUUAAAACGGAAAUUCAGCACAGAUUUUCAACAGAUUGUGUCUACCGAUGAAUACAUGCCUAUGCCUGUCAAUAGCGAAGAAGACUUUGAUAAAAUCAUUCAAGUCAGUUGGUAUGUUCCGGACAGACCGAAAGAAGAAUACACAUUCCCCGGUGUAUUACCAUUCUCCCAGAUGUACCCAAUGUGCUGUAUAGAUAUCAGAAAUUUCCUGAAUCGAUUCUACUUCAUAAUGGAUGAUCAUUUUCAACAGCCAAACAUUAUUGAUGAGACACUUAAGAAGUCGAUAGAUGAGCUUCUGUCUGAGGAUAUUU
antisense: AAAUAUCCUCAGACAGAAGCUCAUCUAUCGACUUCUUAAGUGUCUCAUCAAUAAUGUUUGGCUGUUGAAAAUGAUCAUCCAUUAUGAAGUAGAAUCGAUUCAGGAAAUUUCUGAUAUCUAUACAGCACAUUGGGUACAUCUGGGAGAAUGGUAAUACACCGGGGAAUGUGUAUUCUUCUUUCGGUCUGUCCGGAACAUACCAACUGACUUGAAUGAUUUUAUCAAAGUCUUCUUCGCUAUUGACAGGCAUAGGCAUGUAUUCAUCGGUAGACACAAUCUGUUGAAAAUCUGUGCUGAAUUUCCGUUUUAACAAAUCAGCAUAUCUAUAGAAAAGCUUAAGCACAUAAGCAUCUAAUAUGGCAACUGAAUAUCCCCAACCCUCCAUUGUUUG
With B2 the “Average % Reduction in Biomass” value ([1]; 25 ppm dsRNA) was 14%, the “Average % Reduction in Biomass” value ([1]; 150 ppm dsRNA) was 37% and the “Average % Reduction in Lesion Size” value ([2]; 30 ppm) was 15.75%. For the same molecule, the “Average % Reduction in Lesion Size” value ([2]; 50 ppm) was 30.49%.

B3: GS2291: dsRNA trigger targeting B. cinerea Bcgpi2 (XM_024693470.1); trigger SEQ ID NO 22, RNA 34, reverse complement 46 (nucleic acid, listed as Botrytis cinerea)
sense: CUGUCAACCAAUUGCGCAUGACAAAUGGAGAUGCUGGACGAUUAAGAAGUAGAGGAAGACAUGCUGAUAGAACGAAGAGUAGCACCAGAAGACGGAAAACUACUUGGAAAAAGCUGCUAUGGGUGAAGCAAUCAUAUCCAGACAAUUACACGGAUCAAGAUACAUUUCUCGAACAUCUGCAGCGAAAUCCACGUCUUCAGCCUUACGACUUUUGGCCAUUGGUAGCAGAUUCCACGGUUAUAGUACAACACGUUUGUUCGGUCAUUAUAUUCAUUGUUUCUUUCGUUGGGAUAUAUGAUAAACAUGUCUCGCCAGUUUCUGUGGUUGGCUGGGGCUCUAUUGCUACCUUUUUGGGGUGGGUGUUAUGGGAUUUAUGGGUGGGACAGGAAGAAAGUACUCGUCCAGCAUUUCCACCACCGCAGCCUUUCUCUCACAGUGUAUCUGCAACAAGUUCAACACCAAACCUAUUGGCAACAGCUGCAAGUGGGCCAAGGCAAUCCUACUCGAUGUCAACAACAUCUCUUCAAUCUACAGCCUCGAAUCUAACCCAACCACCUCCAAUACGACCGGUUUAUACACCACAUAAUU
antisense: AAUUAUGUGGUGUAUAAACCGGUCGUAUUGGAGGUGGUUGGGUUAGAUUCGAGGCUGUAGAUUGAAGAGAUGUUGUUGACAUCGAGUAGGAUUGCCUUGGCCCACUUGCAGCUGUUGCCAAUAGGUUUGGUGUUGAACUUGUUGCAGAUACACUGUGAGAGAAAGGCUGCGGUGGUGGAAAUGCUGGACGAGUACUUUCUUCCUGUCCCACCCAUAAAUCCCAUAACACCCACCCCAAAAAGGUAGCAAUAGAGCCCCAGCCAACCACAGAAACUGGCGAGACAUGUUUAUCAUAUAUCCCAACGAAAGAAACAAUGAAUAUAAUGACCGAACAAACGUGUUGUACUAUAACCGUGGAAUCUGCUACCAAUGGCCAAAAGUCGUAAGGCUGAAGACGUGGAUUUCGCUGCAGAUGUUCGAGAAAUGUAUCUUGAUCCGUGUAAUUGUCUGGAUAUGAUUGCUUCACCCAUAGCAGCUUUUUCCAAGUAGUUUUCCGUCUUCUGGUGCUACUCUUCGUUCUAUCAGCAUGUCUUCCUCUACUUCUUAAUCGUCCAGCAUCUCCAUUUGUCAUGCGCAAUUGGUUGACAG
For B3, the “Average % Reduction in Biomass” value ([1]; 25 ppm dsRNA) was 5%, the “Average % Reduction in Biomass” value ([1]; 150 ppm dsRNA) was 24% and the “Average % Reduction in Lesion Size” value ([2]; 30 ppm) was 28.77%. For the same molecule, the “Average % Reduction in Lesion Size” value ([2]; 50 ppm) was 46.11%.

B4: GS2640: dsRNA trigger targeting B. cinerea Bcsec15 (XM_024692064.1); trigger SEQ ID NO 50, RNA 54, reverse complement 58 (nucleic acid, listed as Botrytis cinerea)
sense: AAAUUCAGCACAGAUUUUCAACAGAUUGUGUCUACCGAUGAAUACAUGCCUAUGCCUGUCAAUAGCGAAGAAGACUUUGAUAAAAUCAUUCAAGUCAGUUGGUAUGUUCCGGACAGACCGAAAGAAGAAUACACAUUCCCCGGUGUAUUACCAUUCUCCCAGAUGUACCCAAUGUGCUGUAUAGAUAUCAGAAAUUUCCUGAAUCGAUUCUACUUCAUAAUGGAUGAUCAUUUUCAACAGCCAAACAUUAUUGAUGAGACACUUAAGAAGUCGAUAGAUGAGCUUCUGUCUGAGGAUAUUU
antisense: AAAUAUCCUCAGACAGAAGCUCAUCUAUCGACUUCUUAAGUGUCUCAUCAAUAAUGUUUGGCUGUUGAAAAUGAUCAUCCAUUAUGAAGUAGAAUCGAUUCAGGAAAUUUCUGAUAUCUAUACAGCACAUUGGGUACAUCUGGGAGAAUGGUAAUACACCGGGGAAUGUGUAUUCUUCUUUCGGUCUGUCCGGAACAUACCAACUGACUUGAAUGAUUUUAUCAAAGUCUUCUUCGCUAUUGACAGGCAUAGGCAUGUAUUCAUCGGUAGACACAAUCUGUUGAAAAUCUGUGCUGAAUUU
In the case of B4, the “Average % Reduction in Biomass” value ([1]; 25 ppm dsRNA) is reported as 24%, the “Average % Reduction in Biomass” value ([1]; 150 ppm dsRNA) is reported as 54% and the “Average % Reduction in Lesion Size” value ([2]; 30 ppm) is reported as 19.63%. The “Average % Reduction in Lesion Size” value ([2]; 50 ppm) was 22.76%.
